According to patent US20200199241A1 (Chugai, published 2020):

T1: human FcγRIIa(H) (human, UniProt P12318 36-217)
T1 construct: also called FcgRIIaH; FcγRIIa type H
T1 sequence: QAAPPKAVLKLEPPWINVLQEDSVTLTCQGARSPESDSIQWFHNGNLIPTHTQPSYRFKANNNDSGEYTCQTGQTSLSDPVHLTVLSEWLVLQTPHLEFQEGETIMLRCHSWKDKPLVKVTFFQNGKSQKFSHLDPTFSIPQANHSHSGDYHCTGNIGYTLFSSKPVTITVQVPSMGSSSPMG

T2: human FcγRIIa(R) (human, UniProt P12318 36-217)
T2 construct: also called FcgRIIaR; FcγRIIa type R
T2 chain: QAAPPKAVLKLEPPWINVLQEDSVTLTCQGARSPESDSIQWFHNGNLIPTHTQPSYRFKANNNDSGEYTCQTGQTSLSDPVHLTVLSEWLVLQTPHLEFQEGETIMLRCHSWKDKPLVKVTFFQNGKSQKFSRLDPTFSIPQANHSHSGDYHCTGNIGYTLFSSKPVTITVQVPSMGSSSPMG

T3: human FcγRIIb (human, UniProt P31994 43-217, limits assumed)
T3 construct: also called FcgRIIb
T3 sequence: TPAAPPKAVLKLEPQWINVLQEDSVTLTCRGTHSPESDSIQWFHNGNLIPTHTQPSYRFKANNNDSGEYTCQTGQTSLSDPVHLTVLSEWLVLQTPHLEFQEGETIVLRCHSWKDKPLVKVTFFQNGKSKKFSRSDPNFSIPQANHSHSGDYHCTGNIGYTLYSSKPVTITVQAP


Experiments:
Assay in all cases: SPR (Biacore);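 also: antibody variants captured on sensor chip, Fcγ receptor flowed over at 25 °C, bound receptor normalized to amount of captured antibody, expressed relative to reference antibody set as 100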
[1] = target: T1, human FcγRIIa(H)
Method: (§1) Interaction between each modified antibody and Fcγ receptor prepared in the manner described above was analyzed using the BIACORE™ T100 surface plasmon resonance system (GE Healthcare), BIACORE™ T200 surface plasmon resonance system (GE Healthcare), BIACORE™ A100 surface plasmon resonance system or BIACORE™ 4000 surface plasmon resonance system. HBS-EP+ (GE Healthcare) was used for the running buffer, and measurements were carried out at 25° C. The chips used were chips in which antigen peptides, Protein A (Thermo Scientific), Protein A/G (Thermo Scientific) or Protein L (ACTIGEN® protein (Alltech or BioVision) were immobilized on the Series S Sensor Chip CMS (GE Healthcare) or Series S Sensor Chip CM4 (GE Healthcare) by amine coupling, or chips in which preliminarily biotinylated antigen peptides were allowed to interact and then immobilized on the Series S Sensor Chip SA (certified) (GE Healthcare). The target antibodies were captured on these sensor chips, Fcγ receptor diluted with the running buffer was allowed to interact, followed by measurement of the amount of bound antibody. The amounts bound were compared between antibodies. However, since the amount of Fcγ receptor bound depends on the amount of captured antibody, the values used for comparison were first corrected by dividing the amount of Fcγ receptor bound by the captured amount of each antibody. Through reaction with 10 mM glycine-HCl at pH 1.5, the sensor chips were regenerated by washing off antibody captured on the sensor chips and used repeatedly.
(§2) Binding strength was evaluated according to the following method based on the results of analyzing the interaction with each FcγR. […] That value was then further multiplied by 100, and the resulting value was used as an indicator of relative binding activity to each FcγR.

[2] = target: T2, human FcγRIIa(R)
Method: as §1, §2

[3] = target: T4, human FcγRIIIa(F) (human, UniProt P08637 17-208, limits assumed)
T4 construct: also called FcgRIIIaF; allotype F158
T4 sequence (P08637 other isoform, or with tags, fused parts or gaps limits assumed): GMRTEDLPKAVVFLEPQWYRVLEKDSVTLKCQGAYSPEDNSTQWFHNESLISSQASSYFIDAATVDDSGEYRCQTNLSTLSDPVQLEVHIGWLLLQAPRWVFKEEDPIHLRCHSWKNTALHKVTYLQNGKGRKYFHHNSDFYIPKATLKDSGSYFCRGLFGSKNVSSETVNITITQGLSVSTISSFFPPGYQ
Method: as §1, §2

[4] = target: T5, human FcγRIa (human, UniProt P12314 16-292, limits assumed)
T5 construct: also called FcgRIa; FcγRI (CD64)
T5 sequence (P12314 16-292 limits assumed): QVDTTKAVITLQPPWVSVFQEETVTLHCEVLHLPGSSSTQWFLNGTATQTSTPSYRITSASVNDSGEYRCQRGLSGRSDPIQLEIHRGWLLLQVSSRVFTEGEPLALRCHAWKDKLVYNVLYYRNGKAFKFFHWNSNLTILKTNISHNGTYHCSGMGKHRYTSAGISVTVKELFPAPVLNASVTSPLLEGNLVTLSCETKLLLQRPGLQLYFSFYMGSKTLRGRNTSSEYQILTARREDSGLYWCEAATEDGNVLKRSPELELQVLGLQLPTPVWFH
Method: as §1, §2

[5] = target: T3, human FcγRIIb
Method: as §1, §2

relative binding activity [1] | relative binding activity [2] | relative binding activity [3] | relative binding activity [4] | relative binding activity [5] | Binder
13 % of GpH7-B3/GpL16-k0 | 2 % of GpH7-B3/GpL16-k0 | 7 % of GpH7-B3/GpL16-k0 | 72 % of GpH7-B3/GpL16-k0 | 0 % of GpH7-B3/GpL16-k0 | GpH7-B3 variant E269R/GpL16-k0 (antibody, human IgG1, copies: 2 + 2) heavy: not shown light: DIVMTQSPLSLPVTPGEPASISCQASESLVHSNRNTYLHWYLQKPGQSPQLLIYKVSNRFSGVPDRFSGSGSGTDFTLKISRVEAEDVGVYYCSQNTHVPPTFGQGTKVEIE
1 % of GpH7-B3/GpL16-k0 | 58 % of GpH7-B3/GpL16-k0 | 0 % of GpH7-B3/GpL16-k0 | 7 % of GpH7-B3/GpL16-k0 | 51 % of GpH7-B3/GpL16-k0 | GpH7-B3 variant G237L/GpL16-k0 (antibody, human IgG1, copies: 2 + 2) heavy: not shown light: DIVMTQSPLSLPVTPGEPASISCQASESLVHSNRNTYLHWYLQKPGQSPQLLIYKVSNRFSGVPDRFSGSGSGTDFTLKISRVEAEDVGVYYCSQNTHVPPTFGQGTKVEIE
68 % of GpH7-B3/GpL16-k0 | 23 % of GpH7-B3/GpL16-k0 | 24 % of GpH7-B3/GpL16-k0 | 81 % of GpH7-B3/GpL16-k0 | 15 % of GpH7-B3/GpL16-k0 | GpH7-B3 variant G236F/GpL16-k0 (antibody, human IgG1, copies: 2 + 2) heavy: not shown light: DIVMTQSPLSLPVTPGEPASISCQASESLVHSNRNTYLHWYLQKPGQSPQLLIYKVSNRFSGVPDRFSGSGSGTDFTLKISRVEAEDVGVYYCSQNTHVPPTFGQGTKVEIE
35 % of GpH7-B3/GpL16-k0 | 16 % of GpH7-B3/GpL16-k0 | 12 % of GpH7-B3/GpL16-k0 | 92 % of GpH7-B3/GpL16-k0 | 10 % of GpH7-B3/GpL16-k0 | GpH7-B3 variant E269V/GpL16-k0 (antibody, human IgG1, copies: 2 + 2) heavy: not shown light: DIVMTQSPLSLPVTPGEPASISCQASESLVHSNRNTYLHWYLQKPGQSPQLLIYKVSNRFSGVPDRFSGSGSGTDFTLKISRVEAEDVGVYYCSQNTHVPPTFGQGTKVEIE
1 % of GpH7-B3/GpL16-k0 | 14 % of GpH7-B3/GpL16-k0 | 0 % of GpH7-B3/GpL16-k0 | 12 % of GpH7-B3/GpL16-k0 | 11 % of GpH7-B3/GpL16-k0 | GpH7-B3 variant G237H/GpL16-k0 (antibody, human IgG1, copies: 2 + 2) heavy: not shown light: DIVMTQSPLSLPVTPGEPASISCQASESLVHSNRNTYLHWYLQKPGQSPQLLIYKVSNRFSGVPDRFSGSGSGTDFTLKISRVEAEDVGVYYCSQNTHVPPTFGQGTKVEIE
0 % of GpH7-B3/GpL16-k0 | 74 % of GpH7-B3/GpL16-k0 | 0 % of GpH7-B3/GpL16-k0 | 26 % of GpH7-B3/GpL16-k0 | 95 % of GpH7-B3/GpL16-k0 | GpH7-B3 variant G237D/GpL16-k0 (antibody, human IgG1, copies: 2 + 2) heavy: not shown light: DIVMTQSPLSLPVTPGEPASISCQASESLVHSNRNTYLHWYLQKPGQSPQLLIYKVSNRFSGVPDRFSGSGSGTDFTLKISRVEAEDVGVYYCSQNTHVPPTFGQGTKVEIE
0 % of GpH7-B3/GpL16-k0 | 75 % of GpH7-B3/GpL16-k0 | 0 % of GpH7-B3/GpL16-k0 | 15 % of GpH7-B3/GpL16-k0 | 65 % of GpH7-B3/GpL16-k0 | GpH7-B3 variant G237N/GpL16-k0 (antibody, human IgG1, copies: 2 + 2) heavy: not shown light: DIVMTQSPLSLPVTPGEPASISCQASESLVHSNRNTYLHWYLQKPGQSPQLLIYKVSNRFSGVPDRFSGSGSGTDFTLKISRVEAEDVGVYYCSQNTHVPPTFGQGTKVEIE
42 % of GpH7-B3/GpL16-k0 | 23 % of GpH7-B3/GpL16-k0 | 9 % of GpH7-B3/GpL16-k0 | 70 % of GpH7-B3/GpL16-k0 | 14 % of GpH7-B3/GpL16-k0 | GpH7-B3 variant G236M/GpL16-k0 (antibody, human IgG1, copies: 2 + 2) heavy: not shown light: DIVMTQSPLSLPVTPGEPASISCQASESLVHSNRNTYLHWYLQKPGQSPQLLIYKVSNRFSGVPDRFSGSGSGTDFTLKISRVEAEDVGVYYCSQNTHVPPTFGQGTKVEIE
81 % of GpH7-B3/GpL16-k0 | 54 % of GpH7-B3/GpL16-k0 | 8 % of GpH7-B3/GpL16-k0 | 42 % of GpH7-B3/GpL16-k0 | 75 % of GpH7-B3/GpL16-k0 | GpH7-B3 variant G236N/GpL16-k0 (antibody, human IgG1, copies: 2 + 2) heavy: not shown light: DIVMTQSPLSLPVTPGEPASISCQASESLVHSNRNTYLHWYLQKPGQSPQLLIYKVSNRFSGVPDRFSGSGSGTDFTLKISRVEAEDVGVYYCSQNTHVPPTFGQGTKVEIE
1 % of GpH7-B3/GpL16-k0 | 23 % of GpH7-B3/GpL16-k0 | 0 % of GpH7-B3/GpL16-k0 | 18 % of GpH7-B3/GpL16-k0 | 18 % of GpH7-B3/GpL16-k0 | GpH7-B3 variant G237E/GpL16-k0 (antibody, human IgG1, copies: 2 + 2) heavy: not shown light: DIVMTQSPLSLPVTPGEPASISCQASESLVHSNRNTYLHWYLQKPGQSPQLLIYKVSNRFSGVPDRFSGSGSGTDFTLKISRVEAEDVGVYYCSQNTHVPPTFGQGTKVEIE
